The values that follow come from EP2970434B1 (The Regents of the University of California, dated 2018).

Test [1] deals with Glu-plasminogen (Homo sapiens (Human)) (UniProt P00747). The test can be described thus: competition of Glu-Plg (2 µM) binding to PMA-stimulated U937 cells by µ-plasmin-KD1L17R-KT complex, read by plasmin generation; Kd from IC50 by Cheng-Prusoff.
Test [2] addresses T1, tissue plasminogen activator (Alteplase) (UniProt P00750 36-562).
T1 construct: also called tPA
In words: SPR, lower end tied to tPA by paragraph 202. A general note: In SPR one partner is held on a chip, and binding of the other changes the refractive index at the surface.

For test [3], the target named is T2, Glu-plasminogen (Homo sapiens (Human), UniProt P00747 20-810, Native glycoprotein; the glycans are not carried by the letters.).
T2 construct: also called Glu-Plg
The test can be described thus: SPR, upper end tied to Glu-Plg by paragraph 202.

For test [4], the target named is T1, tissue plasminogen activator (Alteplase). The test can be described thus: SPR (Biacore T100, 25 °C), tPA on CM5 chip, 1:1 binding model.
Test [5] has as its target T2, Glu-plasminogen. The test can be described thus: SPR (Biacore T100, 25 °C), Glu-Plg on CM5 chip, 1:1 binding model.
Test [6] deals with T3, human plasmin (human, UniProt P00747 97-810, limits assumed). The test can be described thus: plasmin amidolytic activity inhibition, S-2251 substrate, 3 nM plasmin, tight-binding equation.
The target in test [7] is T3, human plasmin. The test can be described thus: cell-based or functional assay.
Test [8] deals with T3, human plasmin. The test can be described thus: plasmin amidolytic activity inhibition, S-2251 substrate.
Test [9] concerns the target T4, active site-blocked human plasmin (human, UniProt P00747 97-810, limits assumed, active site blocked with a chloromethylketone inhibitor (e.g., D-Val-Phe-Lys chloromethylketone dihydrochloride)).
T4 construct: also called immobilized plasmin
The test can be described thus: SPR (BiaCore), active site-blocked plasmin on CM5 chip, polypeptide as analyte at 1-10 µM.

The target in test [10] is T5, factor VIIa-tissue factor (soluble human tissue factor 100 nM and factor VIIa 50 nM) (human), P08709.
T5 chain 1: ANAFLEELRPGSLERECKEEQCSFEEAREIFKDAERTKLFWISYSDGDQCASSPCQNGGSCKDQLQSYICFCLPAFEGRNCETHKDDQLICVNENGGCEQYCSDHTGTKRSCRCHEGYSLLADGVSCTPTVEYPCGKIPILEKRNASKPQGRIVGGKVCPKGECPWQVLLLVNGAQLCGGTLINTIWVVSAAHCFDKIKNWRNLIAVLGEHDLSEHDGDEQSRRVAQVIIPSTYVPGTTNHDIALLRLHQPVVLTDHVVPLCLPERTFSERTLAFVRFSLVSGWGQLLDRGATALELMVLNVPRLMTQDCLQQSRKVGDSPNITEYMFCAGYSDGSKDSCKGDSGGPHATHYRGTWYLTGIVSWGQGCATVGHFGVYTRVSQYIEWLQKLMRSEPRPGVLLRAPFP
T5 chain 2: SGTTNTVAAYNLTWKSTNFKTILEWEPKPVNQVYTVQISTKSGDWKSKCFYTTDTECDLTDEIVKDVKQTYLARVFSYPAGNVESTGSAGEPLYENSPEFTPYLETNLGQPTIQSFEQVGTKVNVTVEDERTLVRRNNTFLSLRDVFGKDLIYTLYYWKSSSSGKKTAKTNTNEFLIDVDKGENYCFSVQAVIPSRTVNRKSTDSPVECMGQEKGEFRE
In words: factor VIIa-tissue factor amidolytic activity inhibition, S-2288 substrate. The following applies: remark: other sources report otherwise.

Test [11] addresses T4, active site-blocked human plasmin. In words: SPR (BiaCore), active site-blocked plasmin on CM5 chip, polypeptide as analyte at 1-12 µM.

Residue numbers refer to the chain shown, from its start.

A word on the Kd: it is the equilibrium constant for the complex coming apart. A higher Kd goes with weaker binding. Usually koff stands for the first-order rate constant of dissociation. One may read the kon as a measure of how fast the partners come together. Read a high kon as fast association. For orientation: Ki means a measure of affinity in units of concentration, obtained from inhibition or displacement. Read a low Ki as tighter binding.

T3 sequence (P00747 97-810 limits assumed): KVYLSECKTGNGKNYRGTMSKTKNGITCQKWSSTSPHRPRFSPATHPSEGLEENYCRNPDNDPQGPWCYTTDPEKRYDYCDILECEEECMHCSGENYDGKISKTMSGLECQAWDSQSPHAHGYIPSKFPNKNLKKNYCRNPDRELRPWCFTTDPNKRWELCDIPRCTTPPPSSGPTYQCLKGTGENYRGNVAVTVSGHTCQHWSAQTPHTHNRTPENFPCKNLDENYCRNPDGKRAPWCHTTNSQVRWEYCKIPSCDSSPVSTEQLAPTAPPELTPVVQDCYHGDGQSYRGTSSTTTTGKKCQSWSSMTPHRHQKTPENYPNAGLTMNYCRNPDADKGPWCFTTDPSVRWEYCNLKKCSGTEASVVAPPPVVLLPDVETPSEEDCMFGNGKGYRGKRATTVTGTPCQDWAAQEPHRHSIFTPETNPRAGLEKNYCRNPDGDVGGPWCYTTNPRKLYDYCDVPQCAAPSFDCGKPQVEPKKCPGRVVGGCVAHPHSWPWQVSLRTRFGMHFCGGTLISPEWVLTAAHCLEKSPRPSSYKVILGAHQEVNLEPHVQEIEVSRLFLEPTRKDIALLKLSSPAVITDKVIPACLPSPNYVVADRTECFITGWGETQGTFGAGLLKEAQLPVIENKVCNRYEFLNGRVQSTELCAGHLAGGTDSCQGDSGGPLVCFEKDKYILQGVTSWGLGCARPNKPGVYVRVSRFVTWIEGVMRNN
T4 sequence (P00747 97-810 limits assumed): as above
T2 sequence (P00747 20-810 limits assumed): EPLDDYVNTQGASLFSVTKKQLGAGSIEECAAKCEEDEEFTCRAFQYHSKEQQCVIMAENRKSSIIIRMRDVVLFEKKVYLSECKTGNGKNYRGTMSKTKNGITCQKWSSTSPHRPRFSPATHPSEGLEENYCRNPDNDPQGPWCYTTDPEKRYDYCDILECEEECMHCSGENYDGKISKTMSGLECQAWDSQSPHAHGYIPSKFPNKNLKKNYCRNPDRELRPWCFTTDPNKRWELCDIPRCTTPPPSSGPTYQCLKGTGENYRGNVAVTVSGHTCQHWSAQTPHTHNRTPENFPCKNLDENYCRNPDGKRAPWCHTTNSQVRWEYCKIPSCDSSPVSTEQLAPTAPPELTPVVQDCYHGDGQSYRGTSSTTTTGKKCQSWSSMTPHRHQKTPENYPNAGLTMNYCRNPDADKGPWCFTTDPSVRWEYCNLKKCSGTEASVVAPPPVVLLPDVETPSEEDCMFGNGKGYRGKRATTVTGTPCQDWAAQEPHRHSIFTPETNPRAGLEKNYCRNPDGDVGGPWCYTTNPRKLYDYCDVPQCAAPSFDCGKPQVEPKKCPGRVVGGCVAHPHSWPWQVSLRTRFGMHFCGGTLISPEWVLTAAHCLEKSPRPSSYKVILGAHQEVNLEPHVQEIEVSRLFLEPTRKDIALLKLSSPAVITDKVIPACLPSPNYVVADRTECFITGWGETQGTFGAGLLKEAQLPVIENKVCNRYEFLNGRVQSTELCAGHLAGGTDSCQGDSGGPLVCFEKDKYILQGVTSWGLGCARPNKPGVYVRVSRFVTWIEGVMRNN
T1 sequence (P00750 36-562 limits assumed): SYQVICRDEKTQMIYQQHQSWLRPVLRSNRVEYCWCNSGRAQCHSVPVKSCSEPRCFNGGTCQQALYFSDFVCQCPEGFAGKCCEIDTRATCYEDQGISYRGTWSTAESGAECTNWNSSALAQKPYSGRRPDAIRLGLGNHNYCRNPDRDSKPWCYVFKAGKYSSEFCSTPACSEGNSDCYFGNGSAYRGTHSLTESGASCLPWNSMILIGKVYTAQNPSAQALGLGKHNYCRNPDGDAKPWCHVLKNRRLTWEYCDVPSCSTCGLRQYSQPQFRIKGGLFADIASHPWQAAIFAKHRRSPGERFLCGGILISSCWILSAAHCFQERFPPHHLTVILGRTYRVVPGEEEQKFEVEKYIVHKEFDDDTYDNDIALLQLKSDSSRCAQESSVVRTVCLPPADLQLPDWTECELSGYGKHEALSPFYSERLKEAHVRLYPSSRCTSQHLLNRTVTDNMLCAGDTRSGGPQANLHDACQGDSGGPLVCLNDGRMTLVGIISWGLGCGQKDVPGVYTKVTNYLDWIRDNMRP
Sequence of Glu-plasminogen (Homo sapiens (Human)) (P00747 20-810 limits assumed): as the sequence (P00747 20-810 limits assumed) above

Regarding “µ-plasmin-KD1L17R-KT complex (from UniProt P00747 561-580; P00747 581-810)”, in test [1], the Kd was 300 nM.

B1: KD1L17R-KT (designed binder)
chain: GNNAEICLLPLDYGPCRARLLRYYYDRYTQSCRQFLYGGCEGNANNFYTWEACDDACWRIEKVPK
notes: Both have C-terminal lysine; also called IIa cleaved KD1L17R-VT
As to B1, the Kd is 200 to 300 nM in test [2], 200 to 300 nM with Glu-plasminogen [3], 210 nM in [4] and 280 nM with Glu-plasminogen [5]. Moreover, the koff stood at 0.00019 s⁻¹ in [4] and 0.00031 s⁻¹ with Glu-plasminogen [5]. Further, the kon was found to be 910 M⁻¹ s⁻¹ in [4] and 1100 M⁻¹ s⁻¹ with Glu-plasminogen [5]. The same molecule gave a Ki with human plasmin [6] of 1 nM.

B2: plasmin-inhibiting polypeptide comprising the amino acid sequence set forth in SEQ ID NO:5 (designed binder)
chain: NAEICLLPLDYGPCRARLLRYYYDRYTQSCRQFLYGGCEGNANNFYTWEACDDACWRIEK
notes: Expressed in E. coli; also called 60A
In the case of B2, the “IC50 (nM), inhibition of plasmin activity (S2251 hydrolysis)” value (“IC50 (nM), inhibition” below) with human plasmin [7] came out at 3.4 nM. This molecule yielded a Ki with human plasmin [8] of 2.36 nM. In [9], this molecule came in with a Kd of 130 nM.

B3: plasmin-inhibiting polypeptide comprising the amino acid sequence set forth in SEQ ID NO:3 (designed binder)
chain: B2 chain with Y11T
notes: Expressed in E. coli; also called DM; 60B
For B3, in the test with human plasmin [7], the “IC50 (nM), inhibition” value is 1.8 nM. For the same molecule, the Ki with human plasmin [8] turned out to be 0.49 nM; in test [10], 5870 nM. In [9], this molecule displayed a Kd of 313 nM.

B4: plasmin-inhibiting polypeptide comprising the amino acid sequence set forth in SEQ ID NO:4 (designed binder)
chain: NAEICLLPLDTGPCRARLLRYYYDRYTQSCRQFLYGGCEGNANNFYTWEACDDACWRIEKVPK
Regarding B4, the “IC50 (nM), inhibition” value with human plasmin [7] was 0.8 nM.

B5: plasmin-inhibiting polypeptide comprising the amino acid sequence set forth in SEQ ID NO:6 (designed binder)
chain: B4 chain with T11Y
notes: Purified recombinant polypeptide; also called 63-residue
In the case of B5, the “IC50 (nM), inhibition” value with human plasmin [7] amounted to 1.8 nM. The same molecule yielded a Kd in test [11] of 290 nM.
